Here are results for eight substances from US6531306.

Where two headings read alike, the source gives them in different places.

The target in data set [1] is T1, Active DNA-dependent ATPase A Domain (ADAAD, 82 kDa) (Bos taurus) (UniProt Q9TTA5).
T1 sequence: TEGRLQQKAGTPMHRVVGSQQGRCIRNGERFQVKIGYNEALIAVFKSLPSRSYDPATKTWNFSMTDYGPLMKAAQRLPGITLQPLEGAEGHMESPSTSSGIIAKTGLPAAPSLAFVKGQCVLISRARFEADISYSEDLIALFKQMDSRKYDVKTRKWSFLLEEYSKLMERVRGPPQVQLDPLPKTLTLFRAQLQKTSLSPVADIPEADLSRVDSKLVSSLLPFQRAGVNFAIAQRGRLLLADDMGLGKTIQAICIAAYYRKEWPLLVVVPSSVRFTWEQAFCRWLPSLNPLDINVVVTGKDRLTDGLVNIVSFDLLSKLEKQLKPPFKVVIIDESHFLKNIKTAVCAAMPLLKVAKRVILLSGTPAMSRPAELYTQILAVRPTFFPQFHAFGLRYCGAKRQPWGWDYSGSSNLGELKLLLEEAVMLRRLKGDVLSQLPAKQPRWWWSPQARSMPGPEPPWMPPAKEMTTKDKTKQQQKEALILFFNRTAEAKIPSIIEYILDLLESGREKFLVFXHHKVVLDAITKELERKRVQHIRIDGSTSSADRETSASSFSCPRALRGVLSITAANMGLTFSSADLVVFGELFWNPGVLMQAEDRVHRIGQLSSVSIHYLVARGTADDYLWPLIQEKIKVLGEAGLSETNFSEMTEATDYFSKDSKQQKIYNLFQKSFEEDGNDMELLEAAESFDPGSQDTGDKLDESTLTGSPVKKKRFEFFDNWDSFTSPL
The settings on record: ATP hydrolysis.

Data set [2] deals with T1, Active DNA-dependent ATPase A Domain (ADAAD, 82 kDa) (Bos taurus). The settings on record: ATP hydrolysis. The source holds these as a separate data set.
For data set [3] the target is unchanged. The settings on record: apparent binding constant from ATP hydrolysis kinetics.
For data set [4], the system named is MAbs specific for DNA-dependent ATPase A.
For data set [5], the target named is T1, Active DNA-dependent ATPase A Domain (ADAAD, 82 kDa) (Bos taurus). The settings on record: blunt-ended stem-loop, dG 18.4; ATP hydrolysis; SEQ:1 inferred.
For data set [6] the target is unchanged. The settings on record: ATP hydrolysis. The source holds these as a separate data set.

In turn, “Table 16 structure 7 blunt-ended duplex, 4 base mismatch” showed an activity (relative activity) in data set [1] of 66.5.

As to “Table 16 structure 6 AT-rich blunt-ended duplex”, the activity (relative activity) in data set [2] is 49.

Take stem-loop DNA, 3-base loop: the Ka in data set [3] amounted to 2e+07 M⁻¹.

As for DNA-dependent ATPase A, the “DNA-dependent ATP hydrolysis in vitro” value in data set [4] is listed as “none of the MAbs demonstrate inhibition of DNA-dependent ATP hydrolysis in vitro”.

Consider stem-loop DNA, 6-base loop, for which, in data set [3], the Ka was determined as 5e+07 M⁻¹.

As to stem-loop DNA, 9-base loop, in data set [3], the Ka worked out at 8e+07 M⁻¹.

For “GCGCAATTGCGCTCGACGATTTTTTAGCGCAATTGCGC [stem-loop DNA, 12-base loop]”, in data set [5], the activity (relative activity) amounted to 90.

In turn, “Table 16 structure 8 blunt-ended duplex, 10 base mismatch” had an activity (relative activity) in data set [6] of 83.7.
